Measured values: patent publication US12281340B2, “Method of producing N-acyl-amino group-containing compound” (AJINOMOTO CO., INC., priority 2018, dated 2025)
One block for each molecule: values may come before it.

What was measured:
Assay type in all cases: biochemical
Design in all cases: key: +: Detected; −: Not detected
[1] = Synthesis of N-acylamino acids from various fatty acids using purified acylamino acid synthetase, UPLC-MS detection
Method: 0.1 mL of a reaction solution containing 50 mM Tris-HCl, 5 mM amino acid, 5 mM sodium fatty acid (3 mM of sodium palmitate or sodium stearate), 10 mM ATP, 10 mM MgCl2, 1 mM DTT, 200 μg/mL of the purified enzyme, pH 8.0 was shaken at 25° C. for 24 hours. When sodium palmitate or sodium stearate was used, methanol at a final concentration of 10% (v/v) was contained in the reaction solution. As the amino acid, L-Asp was used in AtGH3-6, OsGH3-8, AtGH3-5, AtGH3-12, L-Ile was used in AtJAR1, L-Ala was used in AtGH3-10, SsGH3, L-Glu was used in AtGH3-17, Gly was used in CfHP, L-Lys was used in PsIAAL, and L-Cys was used in PaHP. After completion of the reaction, 0.4 mL of the reaction stop solution (1% (v/v) phosphoric acid, 75% (v/v) methanol) was added, and the mixture was filtrated through the filter followed by being subjected to the UPLC-MS analysis to detect a signal of a molecular weight corresponding to the N-acylamino acid.
The condition for the UPLC-MS analysis is as follows.
Apparatus: ACQUITY UPLC (Waters)
Column: ACQUITY UPLC BEH C18 1.7 μm 2.1×100 mm Column (Waters), mobile phase A: 0.1% formic acid; mobile phase B: acetonitrile
• Flow rate: 0.6 mL/minute • Injection amount: 2 μL • Column temperature: 40° C. • Ionization method: ESI-negative
As a result of the UPLC-MS analysis, the signal of the molecular weight corresponding to the appropriate N-acylamino acid was confirmed in the reaction solution containing the enzyme in combination with sodium fatty acid shown in Table 7 below.

[2] = Synthesis of N-caprinoylamino acid using purified acylamino acid synthetase, UPLC-MS detection; details: +ATP
Summary of the method: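 Purified enzyme (50 μg) with 5 mM amino acid, 5 mM sodium caprate, 10 mM ATP, 10 mM MgCl2, 1 mM DTT in Tris-HCl pH 8.0, 24 h at 25° C; product detected by UPLC-MS (ESI-negative) as the N-caprinoyl amino acid mass signal.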

[3] = Synthesis of N-caprinoyl-amino acid derivative, N-caprinoyl-D-amino acid and N-caprinoyl-peptide using purified acylamino acid synthetase, UPLC-MS detection; details: +ATP
Summary of the method: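 Purified enzyme (50 μg/mL) was incubated with 5 mM sodium caprate, 5 mM amino acid derivative, D-amino acid or peptide, 10 mM ATP, 10 mM MgCl2 and 1 mM DTT in 50 mM Tris-HCl, pH 8.0, for 24 h at 25 °C. After acidic methanol stop, UPLC-MS looked for the mass of the N-caprinoyl product.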

[4] = substrates GABA and sodium caprate
[5] = substrates Gly and sodium caprate
[6] = substrates L-Ala and sodium caprate
[7] = substrates L-Arg and sodium caprate
[8] = substrates L-Asn and sodium caprate
[9] = substrates L-Asp and sodium caprate
[10] = substrates L-Cys and sodium caprate
[11] = substrates L-Gln and sodium caprate
[12] = substrates L-Glu and sodium caprate
[13] = substrates L-His and sodium caprate
[14] = substrates L-Ile and sodium caprate
[15] = substrates L-Leu and sodium caprate
[16] = substrates L-Lys and sodium caprate
[17] = substrates L-Met and sodium caprate
[18] = substrates L-Phe and sodium caprate
[19] = substrates L-Pro and sodium caprate
[20] = substrates L-Ser and sodium caprate
[21] = substrates L-Thr and sodium caprate
[22] = substrates L-Trp and sodium caprate
[23] = substrates L-Tyr and sodium caprate
[24] = substrates L-Val and sodium caprate
[25] = substrates β-Ala and sodium caprate
[26] = substrates Carnosine and sodium caprate
[27] = substrates D-Ala and sodium caprate
[28] = substrates D-Asp and sodium caprate
[29] = substrates D-Cys and sodium caprate
[30] = substrates D-Glu and sodium caprate
[31] = substrates D-Ile and sodium caprate
[32] = substrates D-Lys and sodium caprate
[33] = substrates L-Asp-L-Phe and sodium caprate
[34] = substrates L-Gly-L-Gly and sodium caprate
[35] = substrates Sarcosine and sodium caprate
[36] = substrates Taurine and sodium caprate

signal of molecular weight corresponding to N-acylamino acid ([1]; substrates L-Cys and Capric acid): +
signal of molecular weight corresponding to N-acylamino acid ([1]; substrates L-Cys and Caproic acid): +
signal of molecular weight corresponding to N-acylamino acid ([1]; substrates L-Cys and Caprylic acid): +
signal of molecular weight corresponding to N-acylamino acid ([1]; substrates L-Cys and Lauric acid): +
signal of molecular weight corresponding to N-acylamino acid ([1]; substrates L-Cys and Linoleic acid): −
signal of molecular weight corresponding to N-acylamino acid ([1]; substrates L-Cys and Palmitic acid): −
signal of molecular weight corresponding to N-acylamino acid ([1]; substrates L-Cys and myristic acid): −
signal of molecular weight corresponding to N-acylamino acid ([1]; substrates L-Glu and Capric acid): +
signal of molecular weight corresponding to N-acylamino acid ([1]; substrates L-Glu and Caproic acid): +
signal of molecular weight corresponding to N-acylamino acid ([1]; substrates L-Glu and Caprylic acid): +
signal of molecular weight corresponding to N-acylamino acid ([1]; substrates L-Glu and Lauric acid): +
signal of molecular weight corresponding to N-acylamino acid ([1]; substrates L-Glu and Linoleic acid): −
signal of molecular weight corresponding to N-acylamino acid ([1]; substrates L-Glu and Palmitic acid): +
signal of molecular weight corresponding to N-acylamino acid ([1]; substrates L-Glu and myristic acid): +
signal of molecular weight corresponding to N-caprinoyl amino acid [2, 4]: +
signal of molecular weight corresponding to N-caprinoyl amino acid [2, 5]: +
signal of molecular weight corresponding to N-caprinoyl amino acid [2, 6]: +
signal of molecular weight corresponding to N-caprinoyl amino acid [2, 7]: −
signal of molecular weight corresponding to N-caprinoyl amino acid [2, 8]: +
signal of molecular weight corresponding to N-caprinoyl amino acid [2, 9]: +
signal of molecular weight corresponding to N-caprinoyl amino acid [2, 10]: +
signal of molecular weight corresponding to N-caprinoyl amino acid [2, 11]: +
signal of molecular weight corresponding to N-caprinoyl amino acid [2, 12]: +
signal of molecular weight corresponding to N-caprinoyl amino acid [2, 13]: −
signal of molecular weight corresponding to N-caprinoyl amino acid [2, 14]: +
signal of molecular weight corresponding to N-caprinoyl amino acid [2, 15]: +
signal of molecular weight corresponding to N-caprinoyl amino acid [2, 16]: −
signal of molecular weight corresponding to N-caprinoyl amino acid [2, 17]: +
signal of molecular weight corresponding to N-caprinoyl amino acid [2, 18]: +
signal of molecular weight corresponding to N-caprinoyl amino acid [2, 19]: −
signal of molecular weight corresponding to N-caprinoyl amino acid [2, 20]: +
signal of molecular weight corresponding to N-caprinoyl amino acid [2, 21]: +
signal of molecular weight corresponding to N-caprinoyl amino acid [2, 22]: +
signal of molecular weight corresponding to N-caprinoyl amino acid [2, 23]: +
signal of molecular weight corresponding to N-caprinoyl amino acid [2, 24]: +
signal of molecular weight corresponding to N-caprinoyl amino acid [2, 25]: +
signal of molecular weight corresponding to N-caprinoyl compound [3, 26]: −
signal of molecular weight corresponding to N-caprinoyl compound [3, 27]: −
signal of molecular weight corresponding to N-caprinoyl compound [3, 28]: +
signal of molecular weight corresponding to N-caprinoyl compound [3, 29]: −
signal of molecular weight corresponding to N-caprinoyl compound [3, 30]: +
signal of molecular weight corresponding to N-caprinoyl compound [3, 31]: +
signal of molecular weight corresponding to N-caprinoyl compound [3, 32]: −
signal of molecular weight corresponding to N-caprinoyl compound [3, 33]: −
signal of molecular weight corresponding to N-caprinoyl compound [3, 34]: +
signal of molecular weight corresponding to N-caprinoyl compound [3, 35]: −
signal of molecular weight corresponding to N-caprinoyl compound [3, 36]: +
B1: AtGH3-17: indole-3-acetic acid-amido synthetase GH3.17 from Arabidopsis thaliana, His-tagged (protein, listed as Arabidopsis thaliana)
chain: MIPSYDPNDTEAGLKLLEDLTTNAEAIQQQVLHQILSQNSGTQYLRAFLDGEADKNQQSFKNKVPVVNYDDVKPFIQRIADGESSDIVSAQPITELLTSSGTSAGKPKLMPSTAEELERKTFFYSMLVPIMNKYVDGLDEGKGMYLLFIKPEIKTPSGLMARPVLTSYYKSQHFRNRPFNKYNVYTSPDQTILCQDSKQSMYCQLLCGLVQRSHVLRVGAVFASAFLRAVKFLEDHYKELCADIRTGTVTSWITDSSCRDSVLSILNGPNQELADEIESECAEKSWEGILRRIWPKAKYVEVIVTGSMAQYIPTLEFYSGGLPLVSTMYASSECYFGINLNPLCDPADVSYTLLPNMAYFEFLPVDDKSHEEIHFATHSNTDDDDDALKEDLIVNLVNVEVGQYYEIVITTFTGLYRYRVGDILKVTGFHNKAPQFRFVQRRNVVLSIDTDKTSEEDLLNAVTQAKLNHLQHPSSLLLTEYTSYADTSSIPGHYVLFWELKPRHSNDPPKLDDKTMEDCCSEVEDCLDYVYRRCRNRDKSIGPLEIRVVSLGTFDSLMDFCVSQGSSLNQYKTPRCVKSGGALEILDSRVIGRFFSKRVPQWEPLGLDS
modifications: His-tag
notes: indole-3-acetic acid-amido synthetase GH3.17 from Arabidopsis thaliana, His-tagged

signal of molecular weight corresponding to N-acylamino acid ([1]; substrates L-Ala and Capric acid): +
signal of molecular weight corresponding to N-acylamino acid ([1]; substrates L-Ala and Caproic acid): +
signal of molecular weight corresponding to N-acylamino acid ([1]; substrates L-Ala and Caprylic acid): +
signal of molecular weight corresponding to N-acylamino acid ([1]; substrates L-Ala and Lauric acid): +
signal of molecular weight corresponding to N-acylamino acid ([1]; substrates L-Ala and Linoleic acid): −
signal of molecular weight corresponding to N-acylamino acid ([1]; substrates L-Ala and Palmitic acid): −
signal of molecular weight corresponding to N-acylamino acid ([1]; substrates L-Ala and myristic acid): +
signal of molecular weight corresponding to N-caprinoyl amino acid [2, 4]: −
signal of molecular weight corresponding to N-caprinoyl amino acid [2, 5]: +
signal of molecular weight corresponding to N-caprinoyl amino acid [2, 6]: +
signal of molecular weight corresponding to N-caprinoyl amino acid [2, 7]: −
signal of molecular weight corresponding to N-caprinoyl amino acid [2, 8]: −
signal of molecular weight corresponding to N-caprinoyl amino acid [2, 9]: +
signal of molecular weight corresponding to N-caprinoyl amino acid [2, 10]: −
signal of molecular weight corresponding to N-caprinoyl amino acid [2, 11]: −
signal of molecular weight corresponding to N-caprinoyl amino acid [2, 12]: −
signal of molecular weight corresponding to N-caprinoyl amino acid [2, 13]: −
signal of molecular weight corresponding to N-caprinoyl amino acid [2, 14]: +
signal of molecular weight corresponding to N-caprinoyl amino acid [2, 15]: +
signal of molecular weight corresponding to N-caprinoyl amino acid [2, 16]: −
signal of molecular weight corresponding to N-caprinoyl amino acid [2, 17]: +
signal of molecular weight corresponding to N-caprinoyl amino acid [2, 18]: −
signal of molecular weight corresponding to N-caprinoyl amino acid [2, 19]: −
signal of molecular weight corresponding to N-caprinoyl amino acid [2, 20]: +
signal of molecular weight corresponding to N-caprinoyl amino acid [2, 21]: −
signal of molecular weight corresponding to N-caprinoyl amino acid [2, 22]: −
signal of molecular weight corresponding to N-caprinoyl amino acid [2, 23]: −
signal of molecular weight corresponding to N-caprinoyl amino acid [2, 24]: +
signal of molecular weight corresponding to N-caprinoyl amino acid [2, 25]: +
signal of molecular weight corresponding to N-caprinoyl compound [3, 26]: −
signal of molecular weight corresponding to N-caprinoyl compound [3, 27]: +
signal of molecular weight corresponding to N-caprinoyl compound [3, 28]: +
signal of molecular weight corresponding to N-caprinoyl compound [3, 29]: −
signal of molecular weight corresponding to N-caprinoyl compound [3, 30]: +
signal of molecular weight corresponding to N-caprinoyl compound [3, 31]: −
signal of molecular weight corresponding to N-caprinoyl compound [3, 32]: −
signal of molecular weight corresponding to N-caprinoyl compound [3, 33]: −
signal of molecular weight corresponding to N-caprinoyl compound [3, 34]: +
signal of molecular weight corresponding to N-caprinoyl compound [3, 35]: −
signal of molecular weight corresponding to N-caprinoyl compound [3, 36]: +
B2: SsGH3: GH3 auxin-responsive promoter superfamily from Synechococcus sp. PCC 7335, His-tagged (protein)
chain: MVIHTIPKEILDSVASTGDVFAYHLLRSTGDIGETVLQYLLCLAAKVNLTGIEQDTYNADKVQEQLLNDILRSENKTLYGKKYNFDSLNVDSFRSSLPLTSYENYRESIDNVVQTGNYSQLVSEPITLFQESSGTTGKVKLIPRTNKFTLSAMRAFQAIEAVVQSHFQNPSSSSQRVLALVNTSPTKLTPTGIPRGTGTSGGLNDALQKFKLANYLIDIKYSSPSPVFLISNTEAAYYCHLLFGLLDSDINDISANFAATVLNAMKILEKAWTQLVEDIRQGKLYAGLDIDEATRRELEIRLRANPERARELQAYFEEGFEGILPRIWPSLSCIQCITTGSMQLYTDALRYYSGTVPFFSGSYGASEAWIGVNLDPEREPPAFVVTPHTAFFEFIPQDAIDQEQSATVCLTDLKPGESYEVVVTNMSGLYRYRVGDVVRCVGYHHKSPMIEFMYRRQTLLNLFGEKVSEDVIYSALSTTLREFGMAIQDIDYTCRHEFEGTPWRYVVYLEPADYEGCSSQHEMVQQRLDEVLCNLSDRYRQLREVGSIGSLKLKLVREGTFSGLKTRLLSQEHSDSQFKMPRLLTETALISFMESSL
modifications: His-tag; Synechococcus PCC 7335
notes: GH3 auxin-responsive promoter superfamily from Synechococcus sp; PCC 7335, His-tagged
